Earlier results, collected in paper PMC12172581.

Molecular target: Nterm1 (UniProt position 672, SEVKMDAEFRH)
Assay: potentiometry
Conditions: apo (metal-free) peptide

## Amyloid-beta peptide (Abeta1-40, as tabulated) (Homo sapiens)
  pKa: 8.0
